According to patent US20080267950A1 (BOARD OF TRUSTEES OF THE UNIVERSITY OF ARKANSAS, published 2008):

Legend:
[1] = molecular target: T1, LRP5 in C2C12 cell lysate (mouse, UniProt Q91VN0 31-1614); assay: co-immunoprecipitation: BMPR immunoprecipitated from C2C12 lysate, blotted with anti-LRP5
T1 construct: also called LDL receptor-related protein 5

[2] = molecular target: T2, LRP6 in C2C12 cell lysate (mouse, UniProt O88572 20-1613); assay: co-immunoprecipitation: BMPR immunoprecipitated from C2C12 lysate, blotted with anti-LRP6
T2 construct: also called LDL receptor-related protein 6
T2 sequence (O88572 20-1613 limits assumed): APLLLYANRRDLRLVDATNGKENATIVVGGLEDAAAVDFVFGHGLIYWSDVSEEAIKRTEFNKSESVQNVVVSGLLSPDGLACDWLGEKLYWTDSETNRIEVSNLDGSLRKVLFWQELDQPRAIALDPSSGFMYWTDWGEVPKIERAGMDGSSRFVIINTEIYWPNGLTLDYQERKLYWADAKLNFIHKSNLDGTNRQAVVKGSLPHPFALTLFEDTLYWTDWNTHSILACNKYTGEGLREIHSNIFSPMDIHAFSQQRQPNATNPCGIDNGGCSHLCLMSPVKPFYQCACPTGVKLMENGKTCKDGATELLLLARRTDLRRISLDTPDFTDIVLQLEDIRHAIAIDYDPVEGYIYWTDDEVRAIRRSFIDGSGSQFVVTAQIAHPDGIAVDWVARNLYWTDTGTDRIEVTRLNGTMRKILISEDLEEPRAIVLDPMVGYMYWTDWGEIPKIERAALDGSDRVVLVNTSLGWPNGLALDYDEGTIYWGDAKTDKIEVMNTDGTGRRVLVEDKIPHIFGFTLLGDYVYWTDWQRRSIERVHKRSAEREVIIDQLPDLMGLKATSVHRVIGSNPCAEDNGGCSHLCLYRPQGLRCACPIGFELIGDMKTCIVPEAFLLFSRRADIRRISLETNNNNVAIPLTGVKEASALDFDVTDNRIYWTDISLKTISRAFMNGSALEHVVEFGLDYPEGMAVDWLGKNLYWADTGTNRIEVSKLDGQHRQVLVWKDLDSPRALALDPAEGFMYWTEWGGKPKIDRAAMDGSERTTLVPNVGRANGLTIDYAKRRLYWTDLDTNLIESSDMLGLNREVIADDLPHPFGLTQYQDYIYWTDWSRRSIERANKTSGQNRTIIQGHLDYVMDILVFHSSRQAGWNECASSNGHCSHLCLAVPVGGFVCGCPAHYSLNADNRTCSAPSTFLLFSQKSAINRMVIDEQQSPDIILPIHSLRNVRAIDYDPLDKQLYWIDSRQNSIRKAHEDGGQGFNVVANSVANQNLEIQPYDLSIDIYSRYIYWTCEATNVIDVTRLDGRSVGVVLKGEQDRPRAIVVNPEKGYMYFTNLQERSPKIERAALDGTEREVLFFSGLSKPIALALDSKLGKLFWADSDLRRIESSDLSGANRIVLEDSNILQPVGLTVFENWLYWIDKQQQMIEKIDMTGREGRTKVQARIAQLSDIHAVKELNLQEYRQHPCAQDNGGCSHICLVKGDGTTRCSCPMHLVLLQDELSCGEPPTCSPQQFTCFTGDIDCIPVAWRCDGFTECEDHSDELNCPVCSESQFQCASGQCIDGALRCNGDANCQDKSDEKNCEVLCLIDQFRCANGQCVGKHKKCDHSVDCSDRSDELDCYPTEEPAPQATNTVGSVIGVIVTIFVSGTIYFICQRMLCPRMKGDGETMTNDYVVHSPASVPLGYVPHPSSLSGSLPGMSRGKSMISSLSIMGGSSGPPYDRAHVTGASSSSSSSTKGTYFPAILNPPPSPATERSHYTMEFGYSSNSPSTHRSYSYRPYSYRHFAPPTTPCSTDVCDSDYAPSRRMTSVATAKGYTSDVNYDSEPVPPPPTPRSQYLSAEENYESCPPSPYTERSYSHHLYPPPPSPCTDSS

T1 sequence (Q91VN0 31-1614 limits assumed): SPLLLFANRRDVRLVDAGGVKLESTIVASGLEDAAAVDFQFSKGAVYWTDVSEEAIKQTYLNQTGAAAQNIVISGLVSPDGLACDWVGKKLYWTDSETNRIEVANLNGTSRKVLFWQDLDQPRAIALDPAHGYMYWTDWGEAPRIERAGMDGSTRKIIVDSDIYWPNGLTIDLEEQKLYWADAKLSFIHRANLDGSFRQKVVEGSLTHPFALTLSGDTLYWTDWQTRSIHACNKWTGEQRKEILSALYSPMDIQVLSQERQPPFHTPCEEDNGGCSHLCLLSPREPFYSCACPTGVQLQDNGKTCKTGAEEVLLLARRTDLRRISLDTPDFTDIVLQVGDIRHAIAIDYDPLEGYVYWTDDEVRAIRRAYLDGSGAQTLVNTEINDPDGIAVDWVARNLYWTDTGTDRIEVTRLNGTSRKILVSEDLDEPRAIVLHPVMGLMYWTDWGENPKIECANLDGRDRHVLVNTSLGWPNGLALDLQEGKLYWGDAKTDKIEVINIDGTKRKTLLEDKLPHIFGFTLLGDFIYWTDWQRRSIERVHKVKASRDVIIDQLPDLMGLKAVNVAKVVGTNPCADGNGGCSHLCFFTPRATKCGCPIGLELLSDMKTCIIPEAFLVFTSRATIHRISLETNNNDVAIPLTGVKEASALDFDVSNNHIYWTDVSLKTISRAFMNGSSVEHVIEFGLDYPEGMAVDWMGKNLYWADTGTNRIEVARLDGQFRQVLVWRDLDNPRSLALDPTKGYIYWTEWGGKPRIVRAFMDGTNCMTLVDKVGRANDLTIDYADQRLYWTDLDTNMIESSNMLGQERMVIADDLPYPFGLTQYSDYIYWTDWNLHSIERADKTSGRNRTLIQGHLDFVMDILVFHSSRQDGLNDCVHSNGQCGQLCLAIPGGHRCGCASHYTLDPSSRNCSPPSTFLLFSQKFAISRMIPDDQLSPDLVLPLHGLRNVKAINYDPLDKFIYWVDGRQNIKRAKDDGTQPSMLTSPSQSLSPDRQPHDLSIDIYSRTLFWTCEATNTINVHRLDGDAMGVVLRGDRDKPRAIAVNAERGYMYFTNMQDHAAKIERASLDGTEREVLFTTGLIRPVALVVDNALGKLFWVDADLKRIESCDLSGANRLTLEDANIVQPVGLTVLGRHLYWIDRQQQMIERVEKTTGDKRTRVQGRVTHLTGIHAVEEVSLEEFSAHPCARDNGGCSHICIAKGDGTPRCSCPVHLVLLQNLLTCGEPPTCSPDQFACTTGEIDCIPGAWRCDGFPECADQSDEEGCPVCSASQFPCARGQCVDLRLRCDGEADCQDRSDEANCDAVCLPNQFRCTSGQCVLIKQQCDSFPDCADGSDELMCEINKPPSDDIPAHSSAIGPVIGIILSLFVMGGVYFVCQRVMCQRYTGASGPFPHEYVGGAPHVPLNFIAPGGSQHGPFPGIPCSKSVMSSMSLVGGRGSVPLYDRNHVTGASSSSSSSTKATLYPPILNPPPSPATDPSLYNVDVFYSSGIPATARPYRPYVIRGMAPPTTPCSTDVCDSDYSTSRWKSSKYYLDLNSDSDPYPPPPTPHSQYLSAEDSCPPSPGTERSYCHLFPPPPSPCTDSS

B1: BMPR-II in C2C12 cell lysate (receptor, mouse, UniProt O35607 27-1038, looked up)
chain: SQNQERLCAFKDPYQQDLGIGESRISHENGTILCSKGSTCYGLWEKSKGDINLVKQGCWSHIGDPQECHYEECVVTTTPPSIQNGTYRFCCCSTDLCNVNFTENFPPPDTTPLSPPHSFNRDETIIIALASVSVLAVLIVALCFGYRMLTGDRKQGLHSMNMMEAAAAEPSLDLDNLKLLELIGRGRYGAVYKGSLDERPVAVKVFSFANRQNFINEKNIYRVPLMEHDNIARFIVGDERLTADGRMEYLLVMEYYPNGSLCKYLSLHTSDWVSSCRLAHSVTRGLAYLHTELPRGDHYKPAISHRDLNSRNVLVKNDGACVISDFGLSMRLTGNRLVRPGEEDNAAISEVGTIRYMAPEVLEGAVNLRDCESALKQVDMYALGLIYWEVFMRCTDLFPGESVPDYQMAFQTEVGNHPTFEDMQVLVSREKQRPKFPEAWKENSLAVRSLKETIEDCWDQDAEARLTAQCAEERMAELMMIWERNKSVSPTVNPMSTAMQNERNLSHNRRVPKIGPYPDYSSSSYIEDSIHHTDSIVKNISSEHSMSSTPLTIGEKNRNSINYERQQAQARIPSPETSVTSLSTNTTTTNTTGLTPSTGMTTISEMPYPDETHLHATNVAQSIGPTPVCLQLTEEDLETNKLDPKEVDKNLKESSDENLMEHSLKQFSGPDPLSSTSSSLLYPLIKLAVEVTGQQDFTQAANGQACLIPDVPPAQIYPLPKQQNLPKRPTSLPLNTKNSTKEPRLKFGNKHKSNLKQVETGVAKMNTINAAEPHVVTVTMNGVAGRSHNVNSHAATTQYANGAVPAGQAANIVAHRSQEMLQNQFIGEDTRLNINSSPDEHEPLLRREQQAGHDEGVLDRLVDRRERPLEGGRTNSNNNNSNPCSEQDILTQGVTSTAADPGPSKPRRAQRPNSLDLSATNILDGSSIQIGESTQDGKSGSGEKIKRRVKTPYSLKRWRPSTWVISTEPLDCEVNNNGSDRAVHSKSSTAVYLAEGGTATTTVSKDIGMNCL
notes: also called BMP-2 receptor
- binding result [1]: no binding
- binding result [2]: no binding
